# Results as given in US20240158799, “[…] THAT […] BIND TO A SARS-COV-2 VIRUS NUCLEOCAPSID PROTEIN” (IQ SCIENCE LIMITED, published 2024).
# Target: SARS-CoV-2 spike protein (S1/S2 complex) (SARS-CoV-2, UniProt P0DTC2 P0DTC2:14-1213)
row,Binder,binding result
1,SS48 (ssDNA) DNA: TAACCACATAACCGCAAGACGACGACACAAAAGCATTTCGGCAATCCGACAGTGGTCCATATTGTGCTACTCTCCTCGT,binds
2,SS04 (ssDNA) DNA: TAACCACATAACCGCAAGACGAACGAACCATATAACGCGTAGTAACATCCAAGGCGCCCTATTGTGCTACTCTCCTCGT,binds
3,SS10 (ssDNA) DNA: TAACCACATAACCGCAAGACGCACGCAAAACTTTCAGTAATCCTAAGATGCCATGTTACTATTGTGCTACTCTCCTCGT,binds
4,SS12 (ssDNA) DNA: TAACCACATAACCGCAAGACGATGGCCGCAACCGAGAAACTATGACGATGGATCACGGCTATTGTGCTACTCTCCTCGT,binds
5,SS18 (ssDNA) DNA: TAACCACATAACCGCAAGACCAGCAGAAAACTCAACATAAGCAGCAGTTCGGGCGCTACTATTGTGCTACTCTCCTCGT,binds
6,SS20 (ssDNA) DNA: TAACCACATAACCGCAAGACGAACACCGATGCCGCGCACAATCGTGTAAACGGATGTCCTATTGTGCTACTCTCCTCGT,binds

# Target: SARS-CoV-2 nucleocapsid protein (SARS-CoV-2, UniProt P0DTC9 P0DTC9:1-419)
row,Binder,Kd [nM]
1,N06 (ssDNA) DNA: TAACCACATAACCGCAAGATCCCGATAGACCCGCGTCTCATGTACCTTACATGCTACGATATTGTGCTACTCTCCTCGT,25.1
2,N08 (ssDNA) DNA: TAACCACATAACCGCAAGACCACACGCACGAAAACAATTGACATGAAATTTACGGCTCTTATTGTGCTACTCTCCTCGT,18.7
3,N11 (ssDNA) DNA: TAACCACATAACCGCAAGACGACGCGATACAAAACACTACTAATCTCTCGTCGCACTAGTATTGTGCTACTCTCCTCGT,29.6
